T1: human Ang2-RBD-muFc (human, UniProt O15123 275-496, limits assumed)
T1 construct: also called Human ANG2 (KinExA); not shown: murine Fc (muFc)
T1 sequence: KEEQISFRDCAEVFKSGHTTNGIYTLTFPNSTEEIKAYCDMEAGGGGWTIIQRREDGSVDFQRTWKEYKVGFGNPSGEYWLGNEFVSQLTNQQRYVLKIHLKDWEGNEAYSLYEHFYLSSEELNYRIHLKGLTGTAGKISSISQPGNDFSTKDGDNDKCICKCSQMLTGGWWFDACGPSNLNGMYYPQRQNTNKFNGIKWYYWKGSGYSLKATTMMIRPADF

T2: human Ang2-RBD (human, UniProt O15123 275-496, limits assumed)
T2 construct: also called Human ANG2 (SPR); Angiopoietin 2-RBD
T2 sequence: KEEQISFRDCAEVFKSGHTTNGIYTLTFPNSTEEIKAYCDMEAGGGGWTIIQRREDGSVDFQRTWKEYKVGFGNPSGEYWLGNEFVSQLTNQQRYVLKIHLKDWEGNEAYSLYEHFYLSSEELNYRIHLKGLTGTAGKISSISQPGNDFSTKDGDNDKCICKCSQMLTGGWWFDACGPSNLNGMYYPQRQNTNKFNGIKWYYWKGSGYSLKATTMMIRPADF

T3: human VEGFA-121-His (human, UniProt P15692 181-395)
T3 construct: Prepared in-house; not shown: His tag
T3 sequence: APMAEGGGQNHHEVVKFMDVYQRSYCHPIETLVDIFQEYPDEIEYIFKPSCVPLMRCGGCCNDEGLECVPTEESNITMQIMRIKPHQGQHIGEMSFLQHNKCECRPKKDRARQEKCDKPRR


What was measured:
human Ang2-RBD-muFc [1] = biological target: T1, human Ang2-RBD-muFc; assay: KinExA, human ANG2 (Ang2-RBD-muFc) by the table's title; the column's head prints VEGFA-121
Protocol: (§1) All KinExA® experiments were performed at room temperature (RT) using PBS pH 7.4 with 0.01% BSA and 0.01% Tween® 20 (BioRad, #161-0781) as running buffer. […] A flow rate of 0.25 ml/min was used. A constant amount of Ang2-RBD-muFc (50 pM and in a second experiment 500 pM) was titrated with tested antibody by twofold serial dilution starting at 4 nM (concentration range 1.95 pM-4000 pM). Antigen-antibody complexes were incubated at RT for at least 8 h to allow equilibrium to be reached. Equilibrated mixtures were then drawn through a column of Anti-Ang2 antibody (MAB098) coupled beads in the KinExA® system at a volume of 750 μl for 50 pM constant Ang2 and at a volume of 188 μl for 500 pM constant Ang2 permitting unbound Ang2 to be captured by the beads without perturbing the equilibrium state of the solution. Bound Ang2 was detected using a second biotinylated anti-Ang2 antibody (BAM0981) with a concentration of 250 ng/ml and following by an injection of 250 ng/ml Streptavidin Alexa Fluor™ 647 conjugate in sample buffer. Each sample was measured in duplicates for all equilibrium experiments. The KD was obtained from non-linear regression analysis of the data using a one-site homogeneous binding model contained within the KinExA® software (Version 4.0.11) using the “standard analysis” method. […]

human Ang2-RBD = biological target: T2, human Ang2-RBD; assay: SPR, Fab captured by anti-Fab antibody, Ang2-RBD injected, 25 C, 1:1 fit
Protocol: An anti-Fab capturing antibody (GE Healthcare 28958325) was immobilized to a Series S Sensor Chip C1 (GE Healthcare BR100535) using standard amine coupling chemistry resulting in a surface density of approximately 800 resonance units (RU). As running and dilution buffer, HBS-P+ (10 mM HEPES, 150 mM NaCl pH 7.4, 0.05% Surfactant P20) was used, the temperature of measurement was 25° C. The tested antibody was captured by injecting a 50 nM solution for 60 sec at a flow of 5 μl/min. Association was measured by injection of human Ang2-RBD in various concentrations in solution for 180 sec at a flow of 30 μl/min (0.07 nM-50 nM, 1:3 dilution). The dissociation phase was monitored for up to 900 sec and triggered by switching from the sample solution to running buffer at a flow rate of 30 μl/min. The surface was regenerated by injection of 10 mM Glycine pH 2.1 for 60 s at a flow rate of 30 μl/min. Bulk refractive index differences were corrected by subtracting blank injections and by subtracting the response obtained from the reference flow cell without captured tested antibody. Curve fitting was performed using the 1:1 Langmuir binding model within the Biacore® evaluation software.

human VEGFA-121-His = biological target: T3, human VEGFA-121-His; assay: KinExA equilibrium titration in solution, constant VEGFA-121-His
Protocol: All KinExA® experiments were performed at room temperature (RT) using PBS pH 7.4 with 0.01% BSA and 0.01% Tween® 20 (BioRad, #161-0781) as running buffer. […] A flow rate of 0.25 ml/min was used. […] Antigen-antibody complexes were incubated at RT for at least 8 h to allow equilibrium to be reached. […] Each sample was measured in duplicates for all equilibrium experiments. The KD was obtained from non-linear regression analysis of the data using a one-site homogeneous binding model contained within the KinExA® software (Version 4.0.11) using the “standard analysis” method. The software calculates the KD and determines the 95% confidence interval by fitting the data points to a theoretical KD curve. The 95% confidence interval is given as KD low and KD high.

human Ang2-RBD-muFc [2] = biological target: T1, human Ang2-RBD-muFc; assay: KinExA equilibrium titration in solution, constant Ang2-RBD-muFc
Protocol: as §1

Kd (human Ang2-RBD-muFc [1])	Kd (human Ang2-RBD)	koff (human Ang2-RBD)	kon (human Ang2-RBD)	Kd (human VEGFA-121-His)	Kd (human Ang2-RBD-muFc [2])	Binder
~0.002 nM						bispecific anti-VEGF-A/anti-ANG2 Fab fragment P1AD9820 (Fab, V domains shown, Bispecific Fab with two paratopes in one VH/VL pair; also called P1AD9820 Fab) VH: SEHLVESGGGLVKPGGSLRLSCATADFFEYDDMSWVRQAPGKGLEWVGSISPKGDHKYLNTKFIGRFTISRDDSKNTLYLQMNSLRAEDTAVYYCARDVGFFDWWGQGTLVTVSS VL: AIYMHQEPSSLSASVGDRVTITCHGSYWLNSEVAWYQQKPGKAPKLLIFDGDFKVYEVPSRFSGSGSHEDYTLTISSLQPEDFATYYCQQYRYHPYTFGHGTKVEIKR
	4.55 nM	0.032 s⁻¹	7.03e+06 M⁻¹ s⁻¹	0.0109 nM	7.18 nM	bispecific anti-VEGF-A/anti-ANG2 Fab fragment P1AA8906 (Fab, V domains shown, Bispecific Fab with two paratopes in one VH/VL pair (DutaFab); CH1 and Ckappa) VH: DFQLVESGGGLVKPGGSLRLSCAASYEFEYDDMSWVRQAPGKGLEWVGSISPKGGSTYYNTKFIGRFTISRDNSKNTLYLQMNSLRAEDTAVYYCARDVGFFDMWGQGTLVTVSS VL: AIYMHQEPSSLSASVGDRVTITCHGSYWLSNYLAWYQQKPGKAPKLLIFDARWLVHGVPSRFSGSGSHEDYTLTISSLQPEDFATYYCQQYRYHPYTFGHGTKVEIKR
